Experimental data reported in PMC7950132 (Molecular & Cellular Proteomics : MCP, 2021).

Target: T1, CUL5(NEDD8) (human, UniProt Q93034 1-780; Q15843 1-76, NEDD8 attached at K724)
T1 construct: cullin 5, human; NEDD8, human, conjugated to CUL5; Always present together with RBX2 and ELOB/C in the experiments; written alone for the pairs inside the complexes; The His tag on CUL5 served the Ni-NTA step before TEV cleavage; also called neddylated CUL5; source: E. coli BL21, coexpressed with RBX2 and ELOB/C, neddylated in mixed lysates, purified (Ni-NTA, SEC); not shown: His6, N-terminal, …
T1 sequence (Q93034 whole entry, chain 1 of 2): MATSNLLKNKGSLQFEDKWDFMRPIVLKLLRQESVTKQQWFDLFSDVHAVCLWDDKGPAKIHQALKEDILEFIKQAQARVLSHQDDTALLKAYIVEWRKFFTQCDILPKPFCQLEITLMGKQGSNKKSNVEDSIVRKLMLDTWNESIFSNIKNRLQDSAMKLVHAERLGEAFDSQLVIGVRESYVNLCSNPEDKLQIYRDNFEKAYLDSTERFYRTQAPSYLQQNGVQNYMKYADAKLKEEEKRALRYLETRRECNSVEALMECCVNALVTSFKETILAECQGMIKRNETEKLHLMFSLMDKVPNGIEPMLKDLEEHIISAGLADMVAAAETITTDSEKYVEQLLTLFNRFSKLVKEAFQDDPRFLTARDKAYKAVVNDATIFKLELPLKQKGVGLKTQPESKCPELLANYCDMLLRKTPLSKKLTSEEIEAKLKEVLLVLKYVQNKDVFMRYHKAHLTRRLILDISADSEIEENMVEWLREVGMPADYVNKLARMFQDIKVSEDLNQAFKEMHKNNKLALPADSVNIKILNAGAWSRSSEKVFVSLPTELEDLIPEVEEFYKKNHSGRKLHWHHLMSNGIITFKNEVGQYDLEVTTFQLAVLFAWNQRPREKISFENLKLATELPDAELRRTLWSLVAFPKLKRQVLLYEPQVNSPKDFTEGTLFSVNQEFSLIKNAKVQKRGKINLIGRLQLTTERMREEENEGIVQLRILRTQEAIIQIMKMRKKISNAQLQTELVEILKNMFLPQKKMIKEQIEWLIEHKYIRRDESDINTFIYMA
T1 sequence (Q15843 1-76, chain 2 of 2): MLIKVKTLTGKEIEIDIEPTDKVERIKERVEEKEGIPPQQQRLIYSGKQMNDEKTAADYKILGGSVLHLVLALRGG
Experiment: SEC; ARIH2 mixed with an equimolar amount of ELOB/C-CUL5(NEDD8)-RBX2 or ELOB/C-CUL5-RBX2, separated by size exclusion; fractions on SDS-PAGE
Conditions: both partners purified

- binding result: binds
B1: Ariadne RBR E3 ubiquitin protein ligase 2 (ARIH2) (enzyme, human, UniProt O95376 1-493, looked up)
chain: MSVDMNSQGSDSNEEDYDPNCEEEEEEEEDDPGDIEDYYVGVASDVEQQGADAFDPEEYQFTCLTYKESEGALNEHMTSLASVLKVSHSVAKLILVNFHWQVSEILDRYKSNSAQLLVEARVQPNPSKHVPTSHPPHHCAVCMQFVRKENLLSLACQHQFCRSCWEQHCSVLVKDGVGVGVSCMAQDCPLRTPEDFVFPLLPNEELREKYRRYLFRDYVESHYQLQLCPGADCPMVIRVQEPRARRVQCNRCNEVFCFKCRQMYHAPTDCATIRKWLTKCADDSETANYISAHTKDCPKCNICIEKNGGCNHMQCSKCKHDFCWMCLGDWKTHGSEYYECSRYKENPDIVNQSQQAQAREALKKYLFYFERWENHNKSLQLEAQTYQRIHEKIQERVMNNLGTWIDWQYLQNAAKLLAKCRYTLQYTYPYAYYMESGPRKKLFEYQQAQLEAEIENLSWKVERADSYDRGDLENQMHIAEQRRRTLLKDFHDT
notes: ARIH2, human, codon-optimised synthetic gene; also called ARIH2 RBRL; source: E. coli BL21, purified (Ni-NTA, SEC); not shown: His6, N-terminal, cleaved; MBP, N-terminal, cleaved
